# According to patent US20050036993A1, “Immune activation by double-stranded polynucleotides” (priority 1998, published 2005):
# Columns and labels:
# [1] = tested on: FRTL-5 rat thyroid cells; conditions: literature; cited from earlier work
# [2] = tested on: rat 90K tumor-associated immunostimulator; experiment: Northern analysis of 90K tumor-associated immunostimulator RNA in FRTL-5 cells; format: cell-based; conditions: 5 Tg nucleic acid or 100 U/ml KIFN, Northern after 48 hours
# Excerpt: 12: 19-33 (1998)). Filters were sequentially hybridized with the rat 90K, MHC Class I, MHC Class II, and GAPDH probes. […] The glyceraldehyde phosphate dehydrogenase (GAPDH) probe was cut from a pTRI-GAPDH-Rat template (Ambion, Tex.).
# [3] = tested on: MHC Class I, MHC Class II; experiment: Northern analysis of MHC Class I and Class II RNA after infection or transfection of FRTL-5 cells; conditions: 5 Tg nucleic acid transfected (Lipofectamine Plus), HSV-2 infection or KIFN, Northern 48 hours after treatment
# [4] = tested on: LMP2, TAP-1, invariant chain (Ii), HLA-DM, B7, CIITA, RFX5, IRF-1, PKR, IFN; experiment: Northern analysis of genes responsible for antigen presentation in FRTL-5 cells; format: cell-based, rat
# Description: In some experiments, cells were treated with 100 U/ml rat KIFN for the last 48 hours of culture.
# Transfection—All procedures used 10 cm dishes and transfection with Lipofectamine Plus (GIBCO BRL, Gaithersburg, Md.). […] Transfections with Lipofectamine (GIBCO BRL, Gaithersburg, Md.), with DEAE dextran, or using electroporation, performed as in Example 1, yielded the same results.
# Nucleic Acids—The following polynucleotides were used in these experiments, both made by Pharmacia Biotech, Piscataway, N.J.: poly(dI)/poly(dC) and poly(I)/poly(C). The same results were obtained, however, using sonicated salmon sperm DNA (Stratagene, La Jolla, Calif.), bacterial DNA or calf thymus DNA (Sigma, St. Louis, Mo.), and FRTL-5 cell genomic DNA. […] Viral DNA from Human Herpes Simplex virus and viral DNA oligonucleotides from HIV, HTLV-1, Foamy virus, and cytomegalic virus (CMV) as well as the plasmid vectors pcDNA3 and pRc/RSV, used with or without methylation, also duplicated the results with the ds synthetic polynucleotides.
# The probe for rat CIITA is a cloned rat Type III CIITA cDNA fragment in pcDNA3 (K. Suzuki et al., manuscript in preparation). EcoRI is used to release a 4098 bp fragment as the probe.
# [5] = tested on: Stat 1 (Tyr 701), Stat 3 (Tyr 705); experiment: Western blot of phosphorylated Stat 1, Stat 3 and total Stat 1 in FRTL-5 cells; format: cell-based, rat
# Description: SDS-polyacrylamide gel electrophoresis and Western blotting—Transfected FRTL-5 cells or FRTL-5 cells treated with KIFN (100 U/ml protein) which had been grown in 100 mm dishes (Nalge Nunc International), were placed on ice before harvesting, washed with ice-cold Dulbecco's PBS (DPBS), released by gentle scraping with a rubber policeman, and collected by low-speed centrifugation at 833×g for 10 min in a Sorvall table-top centrifuge (rotor H-1000, Dupont Company, Wilmington Del.). After a second washing in DPBS, cells were resuspended in cold lysis buffer [50 mM HEPES pH 7.0,2 mM MgCl2; 250 mM NaCl; 0.1 mM EDTA; 0.1 mM EGTA; 1 mM DTT; 2 mM Na3VO4; 10 mM Na4P2O7; 10 mM NaF; 0.1% NP-40; 0.5 mM p-amidinophenyl methanesulfonyl fluoride hydrochloride (p-APMSF) plus a protease inhibitor cocktail ([…]; 2.5 mg/ml of antipain; 2.5 mg/ml of chymostatin; 0.25 mg/ml leupeptin; 0.25 mg/ml antipain]. The cells were allowed to lyse on ice for 60 min, after which they were vortexed vigorously and centrifuged at 4° C. and at 12,000 rpm in a microcentrifuge for 10 min. The supernatant was collected and frozen in aliquots at −70° C. […] The membrane was again washed and protein detected by incubation for 1 min with ECL detection reagent (Amersham, Arlington Heights, Ill.) followed by exposure to X-ray film. […]
molecule,measurement,setting,value
"KIFN: K-interferon (gamma interferon, character lost), rat recombinant, 100 U/ml (protein, UniProt P01581 23-156, looked up) Interferon gamma: QGTLIESLESLKNYFNSSSMDAMEGKSLLLDIWRNWQKDGNTKILESQIISFYLRLFEVLKDNQAISNNISVIESHLITNFFSNSKAKKDAFMSIAKFEVNNPQIQHKAVNELIRVIHQLSPESSLRKRKRSRC",cell cycle progression,[1],inhibits progression
same,90K RNA levels,[2],weaker
same,MHC RNA levels / MHC expression (Class I and Class II),[3],increases Class II more than Class I levels
same,expression of genes responsible for antigen presentation,"[4]; 5 Tg dsDNA or 100 U/ml KIFN, 3 to 72 hours",induced
same,"induction of CIITA, RFX5 and IRF-1",[4]; 100 U/ml KIFN,induced
same,phosphorylation of STAT 1 and STAT 3,"[5]; FRTL-5 cells, dsDNA within 6 hours of transfection",significantly lower and more delayed in time
same,total STAT 1 protein,[5]; readily measurable at 12 hours,greater and more advanced in time
